The values below are quoted from earlier work in PMC6136348, “In the quest for new targets for pathogen eradication: the adenylosuccinate synthetase from the bacterium Helicobacter pylori” (Journal of Enzyme Inhibition and Medicinal Chemistry, 2018).

As usually defined, the Kd is the constant that tells how readily two partners part at equilibrium.

For the series, the target named is Adenylosuccinate synthetase (Escherichia coli) (UniProt P0A7D4).

Chain of Adenylosuccinate synthetase (P0A7D4 2-432): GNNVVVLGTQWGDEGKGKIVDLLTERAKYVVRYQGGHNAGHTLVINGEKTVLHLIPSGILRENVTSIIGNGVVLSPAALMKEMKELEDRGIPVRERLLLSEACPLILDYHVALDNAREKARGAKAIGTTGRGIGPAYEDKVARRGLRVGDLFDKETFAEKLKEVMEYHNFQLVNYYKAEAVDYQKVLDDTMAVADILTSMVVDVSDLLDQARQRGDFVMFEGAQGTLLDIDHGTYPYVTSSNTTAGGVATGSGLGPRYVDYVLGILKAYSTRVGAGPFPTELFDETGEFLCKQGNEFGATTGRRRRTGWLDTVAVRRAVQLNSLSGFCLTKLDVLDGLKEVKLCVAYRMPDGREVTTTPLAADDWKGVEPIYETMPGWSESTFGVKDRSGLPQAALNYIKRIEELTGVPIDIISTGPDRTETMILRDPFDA

As for “Adenylosuccinate synthetase (from UniProt P0A7D4)”, the Kd was 10 µM.
